Source: patent US20220204580A1 (AstraZeneca / MedImmune, published 2022)
Numbered stars: 1 amine (or outer) side, 2 acyl side, 3 side chain; on linkers, the order of the positions; unused ones are H or OH. Bridge positions count the residues as written; N and C are the ends. Square brackets hold non-standard residues; d marks the D form. Side chains are listed from the residue outwards. Ends that are not written are not given here. * marks the point of attachment. C18 diacid = O=C(O)CCCCCCCCCCCCCCCCC(=O)*; γGlu = O=C(O)[C@H](CCC(=O)[*:2])N[*:1]; Aib = CC(C)(N)C(=O)O

T1: human amylin receptor (calcitonin receptor co-expressed with receptor activity modifying protein, RAMP3) (human, UniProt P30988 25-474; O60896 24-148)
T1 sequence (looked up) 1: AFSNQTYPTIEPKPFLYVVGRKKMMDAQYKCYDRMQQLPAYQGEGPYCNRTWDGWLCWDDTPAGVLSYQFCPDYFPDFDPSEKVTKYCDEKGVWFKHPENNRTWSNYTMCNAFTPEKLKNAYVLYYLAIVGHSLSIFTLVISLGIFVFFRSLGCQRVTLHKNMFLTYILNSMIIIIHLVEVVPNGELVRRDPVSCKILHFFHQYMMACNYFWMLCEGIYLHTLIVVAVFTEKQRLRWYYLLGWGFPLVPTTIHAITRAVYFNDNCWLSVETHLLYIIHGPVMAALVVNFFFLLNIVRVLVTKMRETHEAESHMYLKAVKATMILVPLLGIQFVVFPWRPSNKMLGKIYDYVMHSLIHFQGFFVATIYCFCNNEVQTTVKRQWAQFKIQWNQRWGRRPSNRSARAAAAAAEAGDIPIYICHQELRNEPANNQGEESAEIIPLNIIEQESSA
T1 sequence (looked up) 2: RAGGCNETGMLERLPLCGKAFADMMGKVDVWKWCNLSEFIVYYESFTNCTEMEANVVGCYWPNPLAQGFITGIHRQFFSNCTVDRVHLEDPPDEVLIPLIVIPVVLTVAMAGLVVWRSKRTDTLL

T2: human calcitonin receptor (human, UniProt P30988 25-474)
T2 sequence (looked up): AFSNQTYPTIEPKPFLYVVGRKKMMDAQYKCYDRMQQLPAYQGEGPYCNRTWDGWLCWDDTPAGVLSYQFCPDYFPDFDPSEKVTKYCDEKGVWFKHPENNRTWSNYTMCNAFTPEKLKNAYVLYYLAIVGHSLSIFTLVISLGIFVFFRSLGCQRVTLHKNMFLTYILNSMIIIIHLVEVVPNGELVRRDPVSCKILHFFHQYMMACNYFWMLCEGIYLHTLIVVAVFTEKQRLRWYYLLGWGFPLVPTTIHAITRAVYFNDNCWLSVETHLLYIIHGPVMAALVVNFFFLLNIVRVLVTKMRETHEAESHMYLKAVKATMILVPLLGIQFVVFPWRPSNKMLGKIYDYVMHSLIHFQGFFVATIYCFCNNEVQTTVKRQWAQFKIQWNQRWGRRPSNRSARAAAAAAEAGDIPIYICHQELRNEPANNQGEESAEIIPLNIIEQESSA

B1: Peptide 98 (SEQ ID NO: 98) (peptide)
peptide: K([γGlu-C18 diacid])KCNTATCATQRLANFL[Aib]HSSNNFGPILPPT[Aib]VGSNTY-NH2
modifications: disulfide 3-8; N-terminus assumed
SMILES: CC[C@H](C)[C@H](NC(=O)[C@@H]1CCCN1C(=O)CNC(=O)[C@H](Cc1ccccc1)NC(=O)[C@H](CC(N)=O)NC(=O)[C@H](CC(N)=O)NC(=O)[C@H](CO)NC(=O)[C@H](CO)NC(=O)[C@H](Cc1c[nH]cn1)NC(=O)C(C)(C)NC(=O)[C@H](CC(C)C)NC(=O)[C@H](Cc1ccccc1)NC(=O)[C@H](CC(N)=O)NC(=O)[C@H](C)NC(=O)[C@H](CC(C)C)NC(=O)[C@H](CCCNC(=N)N)NC(=O)[C@H](CCC(N)=O)NC(=O)[C@@H](NC(=O)[C@H](C)NC(=O)[C@@H]1CSSC[C@H](NC(=O)[C@H](CCCCN)NC(=O)[C@@H](N)CCCCNC(=O)CC[C@H](NC(=O)CCCCCCCCCCCCCCCCC(=O)O)C(=O)O)C(=O)N[C@@H](CC(N)=O)C(=O)N[C@@H]([C@@H](C)O)C(=O)N[C@@H](C)C(=O)N[C@@H]([C@@H](C)O)C(=O)N1)[C@@H](C)O)C(=O)N[C@@H](CC(C)C)C(=O)N1CCC[C@H]1C(=O)N1CCC[C@H]1C(=O)N[C@H](C(=O)NC(C)(C)C(=O)N[C@H](C(=O)NCC(=O)N[C@@H](CO)C(=O)N[C@@H](CC(N)=O)C(=O)N[C@H](C(=O)N[C@@H](Cc1ccc(O)cc1)C(N)=O)[C@@H](C)O)C(C)C)[C@@H](C)O
B2: Peptide 99 (SEQ ID NO: 99) (peptide)
peptide: K([γGlu-C18 diacid])KCNTATCATQRLANFL[Aib]HSSNNFGPILPPTN[Aib]GSNTY-NH2
modifications: disulfide 3-8; N-terminus assumed
SMILES: CC[C@H](C)[C@H](NC(=O)[C@@H]1CCCN1C(=O)CNC(=O)[C@H](Cc1ccccc1)NC(=O)[C@H](CC(N)=O)NC(=O)[C@H](CC(N)=O)NC(=O)[C@H](CO)NC(=O)[C@H](CO)NC(=O)[C@H](Cc1c[nH]cn1)NC(=O)C(C)(C)NC(=O)[C@H](CC(C)C)NC(=O)[C@H](Cc1ccccc1)NC(=O)[C@H](CC(N)=O)NC(=O)[C@H](C)NC(=O)[C@H](CC(C)C)NC(=O)[C@H](CCCNC(=N)N)NC(=O)[C@H](CCC(N)=O)NC(=O)[C@@H](NC(=O)[C@H](C)NC(=O)[C@@H]1CSSC[C@H](NC(=O)[C@H](CCCCN)NC(=O)[C@@H](N)CCCCNC(=O)CC[C@H](NC(=O)CCCCCCCCCCCCCCCCC(=O)O)C(=O)O)C(=O)N[C@@H](CC(N)=O)C(=O)N[C@@H]([C@@H](C)O)C(=O)N[C@@H](C)C(=O)N[C@@H]([C@@H](C)O)C(=O)N1)[C@@H](C)O)C(=O)N[C@@H](CC(C)C)C(=O)N1CCC[C@H]1C(=O)N1CCC[C@H]1C(=O)N[C@H](C(=O)N[C@@H](CC(N)=O)C(=O)NC(C)(C)C(=O)NCC(=O)N[C@@H](CO)C(=O)N[C@@H](CC(N)=O)C(=O)N[C@H](C(=O)N[C@@H](Cc1ccc(O)cc1)C(N)=O)[C@@H](C)O)[C@@H](C)O
B3: Peptide 101 (SEQ ID NO: 101) (peptide)
peptide: K([γGlu-C18 diacid])KCNTATCATQRLANFL[Aib]HSSNNFGPILPPTNVG[Aib]NTY-NH2
modifications: disulfide 3-8; N-terminus assumed
SMILES: CC[C@H](C)[C@H](NC(=O)[C@@H]1CCCN1C(=O)CNC(=O)[C@H](Cc1ccccc1)NC(=O)[C@H](CC(N)=O)NC(=O)[C@H](CC(N)=O)NC(=O)[C@H](CO)NC(=O)[C@H](CO)NC(=O)[C@H](Cc1c[nH]cn1)NC(=O)C(C)(C)NC(=O)[C@H](CC(C)C)NC(=O)[C@H](Cc1ccccc1)NC(=O)[C@H](CC(N)=O)NC(=O)[C@H](C)NC(=O)[C@H](CC(C)C)NC(=O)[C@H](CCCNC(=N)N)NC(=O)[C@H](CCC(N)=O)NC(=O)[C@@H](NC(=O)[C@H](C)NC(=O)[C@@H]1CSSC[C@H](NC(=O)[C@H](CCCCN)NC(=O)[C@@H](N)CCCCNC(=O)CC[C@H](NC(=O)CCCCCCCCCCCCCCCCC(=O)O)C(=O)O)C(=O)N[C@@H](CC(N)=O)C(=O)N[C@@H]([C@@H](C)O)C(=O)N[C@@H](C)C(=O)N[C@@H]([C@@H](C)O)C(=O)N1)[C@@H](C)O)C(=O)N[C@@H](CC(C)C)C(=O)N1CCC[C@H]1C(=O)N1CCC[C@H]1C(=O)N[C@H](C(=O)N[C@@H](CC(N)=O)C(=O)N[C@H](C(=O)NCC(=O)NC(C)(C)C(=O)N[C@@H](CC(N)=O)C(=O)N[C@H](C(=O)N[C@@H](Cc1ccc(O)cc1)C(N)=O)[C@@H](C)O)C(C)C)[C@@H](C)O
B4: Peptide 100 (SEQ ID NO: 100) (peptide)
peptide: K([γGlu-C18 diacid])KCNTATCATQRLANFL[Aib]HSSNNFGPILPPTNV[Aib]SNTY-NH2
modifications: disulfide 3-8; N-terminus assumed
SMILES: CC[C@H](C)[C@H](NC(=O)[C@@H]1CCCN1C(=O)CNC(=O)[C@H](Cc1ccccc1)NC(=O)[C@H](CC(N)=O)NC(=O)[C@H](CC(N)=O)NC(=O)[C@H](CO)NC(=O)[C@H](CO)NC(=O)[C@H](Cc1c[nH]cn1)NC(=O)C(C)(C)NC(=O)[C@H](CC(C)C)NC(=O)[C@H](Cc1ccccc1)NC(=O)[C@H](CC(N)=O)NC(=O)[C@H](C)NC(=O)[C@H](CC(C)C)NC(=O)[C@H](CCCNC(=N)N)NC(=O)[C@H](CCC(N)=O)NC(=O)[C@@H](NC(=O)[C@H](C)NC(=O)[C@@H]1CSSC[C@H](NC(=O)[C@H](CCCCN)NC(=O)[C@@H](N)CCCCNC(=O)CC[C@H](NC(=O)CCCCCCCCCCCCCCCCC(=O)O)C(=O)O)C(=O)N[C@@H](CC(N)=O)C(=O)N[C@@H]([C@@H](C)O)C(=O)N[C@@H](C)C(=O)N[C@@H]([C@@H](C)O)C(=O)N1)[C@@H](C)O)C(=O)N[C@@H](CC(C)C)C(=O)N1CCC[C@H]1C(=O)N1CCC[C@H]1C(=O)N[C@H](C(=O)N[C@@H](CC(N)=O)C(=O)N[C@H](C(=O)NC(C)(C)C(=O)N[C@@H](CO)C(=O)N[C@@H](CC(N)=O)C(=O)N[C@H](C(=O)N[C@@H](Cc1ccc(O)cc1)C(N)=O)[C@@H](C)O)C(C)C)[C@@H](C)O

Experiments:
[1] = target: T1, human amylin receptor (calcitonin …); assay: cell-based or functional assay
[2] = target: T2, human calcitonin receptor; assay: cell-based or functional assay

Binder	EC50 (cAMP production) [1]	Ratio (EC50 hCTR / EC50 hAMYR3) [1]	EC50 (cAMP production) [2]
B1	0.942 nM	1	0.972 nM
B2	3.8 nM	0.5	1.82 nM
B3	0.177 nM	2	0.441 nM
B4	0.364 nM	1	0.459 nM
